Laboratory results as given in US20170247475A1 (Boehringer Ingelheim, published 2017).

Experiments:
[1] = target: T1, recombinant human VEGF165 (human, UniProt P15692-4 27-191); assay: ELISA screen, periplasmic extract on coated hVEGF165
T1 construct: also called hVEGF165; rhVEGF165
Source text: Wells are blocked with a casein solution (1%). After addition of typically a 10-fold dilution of the periplasmic extracts, VHH binding is detected using a mouse anti-myc (Roche) and an anti-mouse-HRP conjugate (DAKO). Clones showing ELISA signals of >3-fold above background are considered as VEGF binding VHHs.

[2] = target: T1, recombinant human VEGF165; assay: Biacore, periplasmic extract on hVEGF165 chip
Experimental: (§1) Dissociation rates of inhibitory VHHs are analyzed on Biacore (Biacore T100 instrument, GE Healthcare). HBS-EP+ buffer is used as running buffer and experiments are performed at 25° C. […] After immobilization, surfaces are deactivated with 10 min injection of 1M ethanolamine pH8.5. A reference surface is activated and deactivated with respectively EDC/NHS and ethanolamine. Periplasmic extracts of VHHs are injected at a 10-fold dilution in running buffer for 2 min at 45 μl/min and allowed to dissociate for 10 or 15 min. Between different samples, the surfaces are regenerated with regeneration buffer. Data are double referenced by subtraction of the curves on the reference channel and of a blank running buffer injection. […] is evaluated by fitting a two phase decay model in the Biacore T100 Evaluation software v2.0.1.

[3] = target: T1, recombinant human VEGF165; assay: Biacore, periplasmic extract on hVEGF165 chip, two phase decay fit
Experimental: as §1

T1 sequence (P15692 other isoform, or with tags, fused parts or gaps limits assumed): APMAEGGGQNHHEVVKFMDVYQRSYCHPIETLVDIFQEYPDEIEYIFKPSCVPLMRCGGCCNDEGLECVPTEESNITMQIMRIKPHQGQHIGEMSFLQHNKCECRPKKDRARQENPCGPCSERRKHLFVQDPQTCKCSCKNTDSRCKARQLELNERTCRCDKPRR

| Binder | binding result [1] | Binding level (RU) [2] | % fast [3] |
| --- | --- | --- | --- |
| VEGFBII89H08 (VHH) VHH: EVQLVESGGGLVQAGGSLRLSCAASGGSFSSYAPGWFRQAPGKEREFVAAFTRSSNIPYYKDSVKGRFTISRDNAHTVYLQMNSLKPEDTAIYYCAVNLGSTWSRDQRTYDYWGQGTQVTVSS | binds |  |  |
| VEGFBII88H01 (VHH) VHH: EVQLVESGGGLVQAGGSLRLSCVASGFTLGTYAIGWFRQAPGKEREAVSCMSAGDSIPWYTASVKGRFTTSTDNARNTVYLQMNSLKPEDTAHYYCAAARYHGDYCYYEGYYPFWGQGTQVTVSS | binds |  |  |
| VEGFBII89B04 (VHH) VHH: EVQLVESGGGLVQAGGSLRLSCAASTSISSTNFMGWYRQAPGKQRELVATITSSSITNYVDSVKGRFTISRDNAKNTVYLQMTSLKPEDTAVYYCHARWRWSDVEYWGKGTLVTVSS | binds |  |  |
| VEGFBII89B08 (VHH) VHH: EVQLVESGGGLVQPGGSLRLSCAASGTTSSIFAMRWYRQAPGKQRELVASITRSSITTYADSVKGRFTPSRDNAKNTVSLQMNSLKPEDTAVYYCNAAIRPELYSVVNDYWGQGTQVTVSS | binds |  |  |
| VEGFBII89G09 (VHH) VHH: EVQLVESGGGLVQPGGSLRLSCAASGTTSSIFAMRWYRQAPGKQRELVASITRSSITTYADSVKGRFTLSRDNAKNTVSLQMNSLKPEDTAVYYCNAAIRPELYSVVNDYWGQGTQVTVSS | binds |  |  |
| VEGFBII88G05 (VHH) VHH: EVQLVESGGGLVQPGASLRLSCAASGDGFTLYNMGWFRQAPGKEREFVAAITSSPMSTYYADSVKGRFSISINNDKTTGFLQMNVLKPEDTGVYFCAAPEGSFRRQYADRAMYDYWGQGTQVTVSS | binds |  |  |
| VEGFBII01E07 (VHH) VHH: EVQLVESGGGLVQAGDSLRLSCVATGRTFRASDMGWFRQAPGKEREFVAAINWSGLSTFYTDSVKGRFTISRDNDNGALYLQMNTLKPEDTAVYSCAAGRIPSSSRFSSPAAYASWGQGTQVTVSS | binds |  |  |
| VEGFBII01C02 (VHH) VHH: EVQLVESGGGLVQAGGSLRLSCTASGGSFSSYGMGWFRQSPGKEREFVSAISEYSNTYCSDSVRGRFTISRDNTKNTVYLQMNSLTPDDTAIYYCAASPTILLTTEQWYKYWGQGTQVTVSS | binds |  |  |
| VEGFBII23A03 (VHH, periplasmic extract) VHH: EVQLVESGGGLVQPGDSLKLSCVASGRTFSSYSMGWFRQAQGKEREFVVAISSGGYIYDSVSLQGRFTISRDNTKNTVYLQTPSLKPEDTAVYYCAASRAYGSSRLRLADTYDYWGQGTQVTVSS |  | 487 RU | 15% |
| VEGFBII30C09 (VHH, periplasmic extract; also called VEGFBII30009) VHH: EVQLVESGGGLVQPGDSLKLSCIASGRTSSSYSMGWFRQAQGQEREFVVAISSGGYIYDSVSLQGRFTISRDNTKNTVYLQTPSLKPEDTAVYYCAASRAYGSSRLRLADTYDYWGQGTQVTVSS |  | 264 RU | 19% |
| VEGFBII23A08 (VHH, periplasmic extract) VHH: EVQLVESGGGLVQTGDSLRLSCVASGRTFSSYSMGWFRQAQGKEREFVVAISNGGYKYDSVSLEGRFTISRDNTKNTVYLQINSLKPEDTAVYYCAASRAYGSSRLRLADTYDYWGQGTQVTVSS |  | 502 RU | 19% |
| VEGFBII40F02 (VHH, periplasmic extract) VHH: EVQLVESGGGLVQPGDSLKLSCAFSGRTFSSYSMAWFRQAQGKEREFVVAISSGGFIYDAVSLEGRFTISRDNTKNTVYLQTPSLKPEGTAVYYCAASRAYGSSRLRLADTYDYWGQGTQVTVSS |  | 258 RU | 20% |
| VEGFBII41B05 (VHH, periplasmic extract) VHH: EVQLVESGGGLVQPGGSLRLSCAFSGRTFSSYSMGWFRQAQGKEREFVVAISSGGFIYDAVSLEGRFTISRDNTKNTVYLQTPSLKPEDTAVYYCAASRAYGSSRLRLADTYDYWGQGTQVTVSS |  | 324 RU | 16% |
| VEGFBII22A11 (VHH, periplasmic extract) VHH: EVQLVESGGGLVQPGDSLKLSCAFSGRTFSSYSMAWFRQAQGKEREFVVAISSGGFIYDAVSLEGRFTISRDNTKNTVYLQTPSLKPEDTAVYYCAASRAYGSSRLRLADTYDYWGQGTQVTVSS |  | 461 RU | 12% |
| VEGFBII23E05 (VHH, periplasmic extract) VHH: EVQLVESEGGLVQPGDSLKLSCVASGRTSSSYSMGWFRQAQGKEREFVVAISSGGYIYDSVSLQGRFTISRDNTKNTVYLQTPSLKPEDTAVYYCAASRAYGSSRLRLADTYDYWGQGTQVTVSS |  | 275 RU | 18% |
| VEGFBII23D11 (VHH, periplasmic extract) VHH: EVQLVESGGGLVQPGDSLRLSCAFSGRTFSSYSMAWFRQAQGKEREFVVAISSGGFIYDAVSLEGRFTISRDNTKNTVYLQTPSLKPEDTAVYYCAASRAYGSSRLRLADTYDYWGQGTQVTVSS |  | 510 RU | 13% |
| VEGFBII27G07 (VHH, periplasmic extract) VHH: EVQLVESGGGLVQPGDSLKLSCVASGRTSSSYSMGWFRQAQGQEREFVVAISSGGYIYDSVSLQGRFTISRDNTKNTVYLQTPSLKPEDTAVYYCAASRAYGSSRLRLADTYDYWGQGTQVTVSS |  | 471 RU | 18% |
| VEGFBII22E04 (VHH, periplasmic extract) VHH: EVQLVESGGGLVQPGDSLKLSCVASGRTSSSYSMGWFRQAQGKEREFVVAISSGGSIYDSVSLQGRFTISRDNTKNTVYLQTPSLKPEDTAVYYCAASRAYASSRLRLADTYDYWGQGTQVTVSS |  | 520 RU | 14% |
| VEGFBII27D08 (VHH, periplasmic extract) VHH: EVQLVESGGGLVQTGDSLRLSCAASGRTFSSYSMGWFRQAQGKEREFVVAISSGGYKYDSVSLEGRFTISRDNTQNTVYLQINSLKPEDTAVYYCAASRAYGSGRLRLADTYDYWGQGTQVTVSS |  | 225 RU | 13% |
| VEGFBII88G03 (VHH) VHH: EVQLVESGGGLVQAGGSLRLSCAASGGTFSSLAVGWFRQAPGKEREFVARITWSGATTYYADAVKDRFTISRDNAKNTMYLQMNSLKPEDTAVYYCAADRSPNIINVVTAYEYDYWGQGTQVTVSS | binds |  |  |
| VEGFBII89F09 (VHH) VHH: EVQLVESGGGLVQAGDSLRLSCAASGRTFNNAIMGWFRQAPGQEREFVAAMNWRGGPTYYADSVKGRFTISGDNTKNTVFLQMNFLKPEDTAVYYCAADEDLYHYSSYHYSRVDLYHYWGQGTQVTVSS | binds |  |  |
| VEGFBII89D04 (VHH) VHH: EVQLVESGGGLVQPGGSLRLSCATSGLTFSDYNLGWFRQAPGKERQFVAVISWRDSFAYYAEPVKGRFTISRDNAKNTVYLQMNSLKPEDTAVYYCAADRVSSRLVLPNTSPDFGSWGQGTQVTVSS | binds |  |  |
| VEGFBII88G11 (VHH) VHH: EVQLVESGGGLAQAGGSLRLSCAASGRTFSGSDMGWFRQSPGKEREIVAAIRLSGSITYYPDSVKGRFTISRDNAKNTVYLQMNSLKPEDTAVYYCAARSTYSYYLALADRGGYDYWGQGTQVTVSS | binds |  |  |
